Data published in US20090060919A1 (AstraZeneca / MedImmune, published 2009).

molecular target: T1, human IgEλ (U266 derived) (human, UniProt P01854-1 1-428); experiment: SPR (BIAcore 2000): IgG captured on protein G', IgE as analyte, bivalent analyte model; geomean
T1 construct: Whole IgE purified from U266 cells (Ikeyama et al. 1986); labelled with europium cryptate or biotin in some assays; also called human IgE (U266-derived); human IgE lambda
T1 sequence (P01854 other isoform, or with tags, fused parts or gaps): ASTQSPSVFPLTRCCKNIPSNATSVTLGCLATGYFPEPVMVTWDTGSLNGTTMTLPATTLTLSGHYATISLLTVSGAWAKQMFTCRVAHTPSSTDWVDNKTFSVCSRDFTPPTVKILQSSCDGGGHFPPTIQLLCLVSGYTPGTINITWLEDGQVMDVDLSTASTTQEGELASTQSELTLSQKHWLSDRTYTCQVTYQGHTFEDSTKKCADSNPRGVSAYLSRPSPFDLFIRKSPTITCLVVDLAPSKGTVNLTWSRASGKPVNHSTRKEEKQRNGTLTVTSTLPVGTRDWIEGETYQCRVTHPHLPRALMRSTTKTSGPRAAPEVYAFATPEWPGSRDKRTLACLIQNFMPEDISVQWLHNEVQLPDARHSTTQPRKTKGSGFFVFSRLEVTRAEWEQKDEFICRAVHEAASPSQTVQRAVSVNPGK
Protocol: In brief, Protein G′ (Sigma Aldrich, P4689) was covalently coupled to the surface of a CM5 sensor chip using standard amine coupling reagents according to manufacturer's instructions (BIAcore). […] The resulting sensorgrams were evaluated using BIA evaluation 3.1 software and fitted to a bivalent analyte model, to provide relative binding data.

Row | Kd [nM] | Binder
1 | 2.1 | Antibody 4 IgG (antibody, V domains shown, Whole human IgG (section 1.4: IgG1)) VH: QVQLVQSGAEVKKPGATVKLSCKVYGYIFTDYNIYWVRQAPGKGLEWMGLIDPDNGETFYAEKFQGRATMTADTSSDRAYMELTSLTFEDTATYYCATVMGKWIKGGYDYWGRGTLVTVSS VL: QSVLTQPPSVSGAPGQRVTISCTGSSSNIGAGYDVHWYQQLPGTAPKLLIYDNFNRPSGVPDRFSGSKSGTSASLAIIGLQTEDEADYYCQSYDSRGGHSPFGTGTKLTVL
2 | 2.1 | Antibody 6 IgG (antibody, V domains shown, Whole human IgG (section 1.4: IgG1)) VH: QVQLVQSGAEVKKPGATVKLSCKVYGYIFTDYNIYWVRQAPGKGLEWMGLIDPDNGETFYAEKFQGRATMTADTSSDRAYMELTSLTFEDTATYYCATVMGKWIKGGYDYWGRGTLVTVSS VL: QSVLTQPPSVSGAPGQRVTISCTGSSSNIGAGYDVHWYQQLPGTAPKLLIYDNFNRPSGVPDRFSGSKSGTSASLAIIGLQTEDEADYYCQSYDSTMRHGPFGTGTKLTVL
3 | 2.4 | Antibody 5 IgG (antibody, V domains shown, Whole human IgG (section 1.4: IgG1)) VH: QVQLVQSGAEVKKPGATVKLSCKVYGYIFTDYNIYWVRQAPGKGLEWMGLIDPDNGETFYAEKFQGRATMTADTSSDRAYMELTSLTFEDTATYYCATVMGKWIKGGYDYWGRGTLVTVSS VL: QSVLTQPPSVSGAPGQRVTISCTGSSSNIGAGYDVHWYQQLPGTAPKLLIYDNFNRPSGVPDRFSGSKSGTSASLAIIGLQTEDEADYYCQSYDSTKHTSPFGTGTKLTVL

molecular target: T1, human IgEλ (U266 derived); experiment: HTRF competition: scFv against Eu-cryptate human IgE binding to human FcεRI-Fc

Row | IC50 [nM] | Binder
4 | 28 | Antibody 2 scFv (scFv, V domains shown, Purified scFv, non-germlined; not shown: scFv linker and any tags; the libraries are only cited to Vaughan et al. 1996) VH: QVQLVQSGAEVKKPGATVKLSCKVYGYIFTDYNIYWVRQAPGKGLEWMGLIDPDNGETFYAEKFQGRATMTADTSSDRAYMELTSLTFEDTATYYCATVSLRSAKGGYDYWGRGTLVTVSS VL: QSVLTQPPSVSGAPGQRVTISCTGSSSNIGAGYDVHWYQQLPGTAPKLLIYDNFNRPSGVPDRFSGSKSGTSASLAIIGLQTEDEADYYCQSYDSSLSGSLFGTGTKLTVL
5 | 9 | Antibody 27 scFv (scFv, V domains shown, Purified scFv, non-germlined) VH: QVQLVQSGAEVKKPGATVKLSCKVYGYIFTDYNIYWVRQAPGKGLEWMGLIDPDNGETFYAEKFQGRATMTADTSSDRAYMELTSLTFEDTATYYCATVSLKEAKGGYDYWGRGTLVTVSS VL: QSVLTQPPSVSGAPGQRVTISCTGSSSNIGAGYDVHWYQQLPGTAPKLLIYDNFNRPSGVPDRFSGSKSGTSASLAIIGLQTEDEADYYCQSYDSPTQTSPFGTGTKLTVL
6 | 10 | Antibody 10 scFv (scFv, V domains shown, Purified scFv, non-germlined) VH: QVQLVQSGAEVKKPGATVKLSCKVYGYIFTDYNIYWVRQAPGKGLEWMGLIDPDNGETFYAEKFQGRATMTADTSSDRAYMELTSLTFEDTATYYCATVSLRAAKGGYDYWGRGTLVTVSS VL: QSVLTQPPSVSGAPGQRVTISCTGSSSNIGAGYDVHWYQQLPGTAPKLLIYDNFNRPSGVPDRFSGSKSGTSASLAIIGLQTEDEADYYCQSYDSEQELAPFGTGTKLTVL
7 | 6 | Antibody 17 scFv (scFv, V domains shown, Purified scFv, non-germlined) VH: QVQLVQSGAEVKKPGATVKLSCKVYGYIFTDYNIYWVRQAPGKGLEWMGLIDPDNGETFYAEKFQGRATMTADTSSDRAYMELTSLTFEDTATYYCATVTLKSAKGGYDYWGRGTLVTVSS VL: QSVLTQPPSVSGAPGQRVTISCTGSSSNIGAGYDVHWYQQLPGTAPKLLIYDNFNRPSGVPDRFSGSKSGTSASLAIIGLQTEDEADYYCQSYDSQSSTSPFGTGTKLTVL
8 | 7 | Antibody 15 scFv (scFv, V domains shown, Purified scFv, non-germlined) VH: QVQLVQSGAEVKKPGATVKLSCKVYGYIFTDYNIYWVRQAPGKGLEWMGLIDPDNGETFYAEKFQGRATMTADTSSDRAYMELTSLTFEDTATYYCATVTLKTAKGGYDYWGRGTLVTVSS VL: QSVLTQPPSVSGAPGQRVTISCTGSSSNIGAGYDVHWYQQLPGTAPKLLIYDNFNRPSGVPDRFSGSKSGTSASLAIIGLQTEDEADYYCQSYDSHKGYGGFGTGTKLTVL
9 | 6 | Antibody 22 scFv (scFv, V domains shown, Purified scFv, non-germlined) VH: QVQLVQSGAEVKKPGATVKLSCKVYGYIFTDYNIYWVRQAPGKGLEWMGLIDPDNGETFYAEKFQGRATMTADTSSDRAYMELTSLTFEDTATYYCATVTLKSAKGGYDYWGRGTLVTVSS VL: QSVLTQPPSVSGAPGQRVTISCTGSSSNIGAGYDVHWYQQLPGTAPKLLIYDNFNRPSGVPDRFSGSKSGTSASLAIIGLQTEDEADYYCQSYDSSGGYAPFGTGTKLTVL
10 | 9 | Antibody 9 scFv (scFv, V domains shown, Purified scFv, non-germlined) VH: QVQLVQSGAEVKKPGATVKLSCKVYGYIFTDYNIYWVRQAPGKGLEWMGLIDPDNGETFYAEKFQGRATMTADTSSDRAYMELTSLTFEDTATYYCATVTLRSAKGGYDYWGRGTLVTVSS VL: QSVLTQPPSVSGAPGQRVTISCTGSSSNIGAGYDVHWYQQLPGTAPKLLIYDNFNRPSGVPDRFSGSKSGTSASLAIIGLQTEDEADYYCQSYDSPSSTSPFGTGTKLTVL
11 | 1 | Antibody 28 scFv (scFv, V domains shown, Purified scFv, non-germlined) VH: QVQLVQSGAEVKKPGATVKLSCKVYGYIFTDYNIYWVRQAPGKGLEWMGLIDPDNGETFYAEKFQGRATMTADTSSDRAYMELTSLTFEDTATYYCATVMGKWIKGGYDYWGRGTLVTVSS VL: QSVLTQPPSVSGAPGQRVTISCTGSSSNIGAGYDVHWYQQLPGTAPKLLIYDNFNRPSGVPDRFSGSKSGTSASLAIIGLQTEDEADYYCQSYDSSSLHSPFGTGTKLTVL
12 | 1 | Antibody 23 scFv (scFv, V domains shown, Purified scFv, non-germlined) VH: QVQLVQSGAEVKKPGATVKLSCKVYGYIFTDYNIYWVRQAPGKGLEWMGLIDPDNGETFYAEKFQGRATMTADTSSDRAYMELTSLTFEDTATYYCATVMGKWIKGGYDYWGRGTLVTVSS VL: QSVLTQPPSVSGAPGQRVTISCTGSSSNIGAGYDVHWYQQLPGTAPKLLIYDNFNRPSGVPDRFSGSKSGTSASLAIIGLQTEDEADYYCQSYDSHHLYSSFGTGTKLTVL
13 | 5 | Antibody 3 scFv (scFv, V domains shown, Purified scFv, non-germlined; not shown: scFv linker and any tags; the libraries are only cited to Vaughan et al. 1996) VH: QVQLVQSGAEVKKPGATVKLSCKVYGYIFTDYNIYWVRQAPGKGLEWMGLIDPDNGETFYAEKFQGRATMTADTSSDRAYMELTSLTFEDTATYYCATVMGKWIKGGYDYWGRGTLVTVSS VL: QSVLTQPPSVSGAPGQRVTISCTGSSSNIGAGYDVHWYQQLPGTAPKLLIYDNFNRPSGVPDRFSGSKSGTSASLAIIGLQTEDEADYYCQSYDSTFNHAPFGTGTKLTVL
14 | 8 | Antibody 14 scFv (scFv, V domains shown, Purified scFv, non-germlined) VH: QVQLVQSGAEVKKPGATVKLSCKVYGYIFTDYNIYWVRQAPGKGLEWMGLIDPDNGETFYAEKFQGRATMTADTSSDRAYMELTSLTFEDTATYYCATVMGKWIKGGYDYWGRGTLVTVSS VL: QSVLTQPPSVSGAPGQRVTISCTGSSSNIGAGYDVHWYQQLPGTAPKLLIYDNFNRPSGVPDRFSGSKSGTSASLAIIGLQTEDEADYYCQSYDSHHRHSPFGTGTKLTVL
15 | 6 | Antibody 21 scFv (scFv, V domains shown, Purified scFv, non-germlined) VH: QVQLVQSGAEVKKPGATVKLSCKVYGYIFTDYNIYWVRQAPGKGLEWMGLIDPDNGETFYAEKFQGRATMTADTSSDRAYMELTSLTFEDTATYYCATVTLKSAKGGYDYWGRGTLVTVSS VL: QSVLTQPPSVSGAPGQRVTISCTGSSSNIGAGYDVHWYQQLPGTAPKLLIYDNFNRPSGVPDRFSGSKSGTSASLAIIGLQTEDEADYYCQSYDSSSQLSPFGTGTKLTVL
16 | 9 | Antibody 7 scFv (scFv, V domains shown, Purified scFv, non-germlined) VH: QVQLVQSGAEVKKPGATVKLSCKVYGYIFTDYNIYWVRQAPGKGLEWMGLIDPDNGETFYAEKFQGRATMTADTSSDRAYMELTSLTFEDTATYYCATVTLKSAKGGYDYWGRGTLVTVSS VL: QSVLTQPPSVSGAPGQRVTISCTGSSSNIGAGYDVHWYQQLPGTAPKLLIYDNFNRPSGVPDRFSGSKSGTSASLAIIGLQTEDEADYYCQSYDSDRRNSPFGTGTKLTVL
17 | 12 | Antibody 26 scFv (scFv, V domains shown, Purified scFv, non-germlined) VH: QVQLVQSGAEVKKPGATVKLSCKVYGYIFTDYNIYWVRQAPGKGLEWMGLIDPDNGETFYAEKFQGRATMTADTSSDRAYMELTSLTFEDTATYYCATVSLKEAKGGYDYWGRGTLVTVSS VL: QSVLTQPPSVSGAPGQRVTISCTGSSSNIGAGYDVHWYQQLPGTAPKLLIYDNFNRPSGVPDRFSGSKSGTSASLAIIGLQTEDEADYYCQSYDSASRHAPFGTGTKLTVL
18 | 8 | Antibody 25 scFv (scFv, V domains shown, Purified scFv, non-germlined) VH: QVQLVQSGAEVKKPGATVKLSCKVYGYIFTDYNIYWVRQAPGKGLEWMGLIDPDNGETFYAEKFQGRATMTADTSSDRAYMELTSLTFEDTATYYCATVTLKSAKGGYDYWGRGTLVTVSS VL: QSVLTQPPSVSGAPGQRVTISCTGSSSNIGAGYDVHWYQQLPGTAPKLLIYDNFNRPSGVPDRFSGSKSGTSASLAIIGLQTEDEADYYCQSYDSNHKTSPFGTGTKLTVL
19 | 9 | Antibody 24 scFv (scFv, V domains shown, Purified scFv, non-germlined) VH: QVQLVQSGAEVKKPGATVKLSCKVYGYIFTDYNIYWVRQAPGKGLEWMGLIDPDNGETFYAEKFQGRATMTADTSSDRAYMELTSLTFEDTATYYCATVTLKTAKGGYDYWGRGTLVTVSS VL: QSVLTQPPSVSGAPGQRVTISCTGSSSNIGAGYDVHWYQQLPGTAPKLLIYDNFNRPSGVPDRFSGSKSGTSASLAIIGLQTEDEADYYCQSYDSRNGYGGFGTGTKLTVL
20 | 11 | Antibody 18 scFv (scFv, V domains shown, Purified scFv, non-germlined) VH: QVQLVQSGAEVKKPGATVKLSCKVYGYIFTDYNIYWVRQAPGKGLEWMGLIDPDNGETFYAEKFQGRATMTADTSSDRAYMELTSLTFEDTATYYCATVLLRSAKGGYDYWGRGTLVTVSS VL: QSVLTQPPSVSGAPGQRVTISCTGSSSNIGAGYDVHWYQQLPGTAPKLLIYDNFNRPSGVPDRFSGSKSGTSASLAIIGLQTEDEADYYCQSYDSHLQLSPFGTGTKLTVL

molecular target: T1, human IgEλ (U266 derived); experiment: cell-based or functional assay

Row | RBL-ER51 calcium signalling IC50 (Geomean), Human IgE [nM] | Binder
21 | 0.088 | Antibody 4 IgG (antibody, V domains shown, Whole human IgG (section 1.4: IgG1)) VH: QVQLVQSGAEVKKPGATVKLSCKVYGYIFTDYNIYWVRQAPGKGLEWMGLIDPDNGETFYAEKFQGRATMTADTSSDRAYMELTSLTFEDTATYYCATVMGKWIKGGYDYWGRGTLVTVSS VL: QSVLTQPPSVSGAPGQRVTISCTGSSSNIGAGYDVHWYQQLPGTAPKLLIYDNFNRPSGVPDRFSGSKSGTSASLAIIGLQTEDEADYYCQSYDSRGGHSPFGTGTKLTVL
22 | 0.096 | Antibody 6 IgG (antibody, V domains shown, Whole human IgG (section 1.4: IgG1)) VH: QVQLVQSGAEVKKPGATVKLSCKVYGYIFTDYNIYWVRQAPGKGLEWMGLIDPDNGETFYAEKFQGRATMTADTSSDRAYMELTSLTFEDTATYYCATVMGKWIKGGYDYWGRGTLVTVSS VL: QSVLTQPPSVSGAPGQRVTISCTGSSSNIGAGYDVHWYQQLPGTAPKLLIYDNFNRPSGVPDRFSGSKSGTSASLAIIGLQTEDEADYYCQSYDSTMRHGPFGTGTKLTVL
23 | 0.091 | Antibody 5 IgG (antibody, V domains shown, Whole human IgG (section 1.4: IgG1)) VH: QVQLVQSGAEVKKPGATVKLSCKVYGYIFTDYNIYWVRQAPGKGLEWMGLIDPDNGETFYAEKFQGRATMTADTSSDRAYMELTSLTFEDTATYYCATVMGKWIKGGYDYWGRGTLVTVSS VL: QSVLTQPPSVSGAPGQRVTISCTGSSSNIGAGYDVHWYQQLPGTAPKLLIYDNFNRPSGVPDRFSGSKSGTSASLAIIGLQTEDEADYYCQSYDSTKHTSPFGTGTKLTVL
